According to patent publication US20240026407A1, “MODIFICATION OF SAPONINS” (GLAXOSMITHKLINE BIOLOGICALS SA, priority 2020, published 2024):

Assays:
Assay type in all cases: biochemical, Quillaja saponaria
[1] = Experiment 6-1: screening of rhamnosidases for derhamnosylation of saponins in treated bark extract (2%), QS-17 2310 to QS-18 2164 (PAR %); details: TBE 2%, pH 7.5, 30 degC, 18 h; TIC peak area ratio percent, LCMS/MS; negative controls 3.061, 2.429
[2] = Experiment 6-1: screening of rhamnosidases for derhamnosylation of saponins in treated bark extract (2%), desglucosyl-QS-17 2134 to QS-21 1988 (PAR %); details: TBE 2%, pH 7.5, 30 degC, 18 h; TIC peak area ratio percent, LCMS/MS; negative controls 2.719, 2.158
[3] = Experiment 6-1: specificity of rhamnosidases towards other rhamnose residues (C3 saccharide rhamnose, C28 saccharide rhamnose); details: TBE 2%, pH 7.5, 30 degC, 18 h; LCMS/MS; negative controls 0.18, 0.17
[4] = Experiment 6-1: screening of rhamnosidases for derhamnosylation of saponins in treated bark extract (2%), QS-17 2296 to QS-18 2150 (PAR %); details: TBE 2%, pH 7.5, 30 degC, 18 h; TIC peak area ratio percent of rhamnosylated starting saponin to derhamnosylated product, LCMS/MS; negative controls 4.876, 5.225

Molecule | Peak57 (PAR %) [1] [%] | Peak75 (PAR %) [2] [%] | ratio PP/QS-21 [3] | QS-17 (PAR %) [4] [%]
1031 (protein, listed as Pedobacter heparinus) MTNFSCIAKRITSFLMLFLSCSPFITAQVKSGTIVYPRGSFDADWISCPDVNLKSYGVFHMRKVFELTSRPKQFVVHVSGDQRYRLFANGTPVCFGPARGDLRNWNYETIDIAPYLKTGKNVLAVQLWNMGSGAPAAQLTYQTGFILQGNSNAEQMVNTNNSWRIIQNKGYFPEPFPPSRLASYIVGSCDSVVFKNYPFGWQNINYDDKSWLSPVSETKPRYYTEKRSLIPRSIPMMEEKIEPITGIVRILGTDTSAILNSFNKNGSITIPANTKATILFDRKTLTTAYPEITFSKGSNGKVKITYAESLFNSENLKGNRNEIKNKTIKGYYDVFLPDGGTAHTFRPLWTRTFRYIQFDITTGSEPMVIDKMQSVFTAYPFKEHAFFTSNDSTLHEIWDVSWRTARLCANETYMDCPYYEQLQYVGDTRIQALISLYVSGDDRLMRNAIEQFHQSQIPDGLTMDAYPAGGGKFIPPFSLFWIAMLHDFYWYRDDEKFIEKYLIPMEAILKWFEYRLDNNSGMLGKTGYWNFVDWSFSPKGIPSGGLEGNSSILSLQYVYALEQAAEIFAHAKQQQKADYYHNLGQKIKRAVYARCYDINNRLLADSPERKAFSQHANIWSIITDCIPFKDQEATMERIMNDSTLTATSLYYRFYYTKAMKKAGLGSLYLSSLRPWKQMLDLGFSTFPETLAPNVRSDCHAWSASPCYDFLATVCGIEPGTPGFATVRISPNLGNLKAVSGELPHPLGPIKVSYKKIKEGSYSAHIELPANLNGIFISKDQKVILTGGKQEITFKYE | 3.096 | 2.367 | 0.17 | 5.218
995 (protein, Bacteroides thetaiotaomicron) MILLGALSLASSTFAQTWIWYPGDYEIWLGNQMNNRRTERGAFFPPFWKTDSHYVVVEFSKVLNLSEPEEVFIAAEGTYNVKLDGKLQFGMPETLLLPAGKHSLNIKVWNQATPPTIYVKGKTVNSDSSWRVTYEDKEWIDESGKASDTSATIYMDAGCWNFDGATQRPSQFSLMREPQQPVAKTEQPEGGILYDFGKETFGFITLKNLSGKGKIDLYYGESPEEAKDKAYCETLDKLLLEPGQITDLAIRSTSPLHHSDNEYTLENSKAFRYVYITHEPEVQIGEVSMQYEYLPEEYRGNFRCNDEELNCIWEVGAYTMHLTTREFFIDGIKRDRWVWSGDAIQSYLMNYYLFFDSESVKRTIWLLRGKDPVTSHSNTIMDYTFYWFLSVYDYYMYSGDRHFVNQLYPRMQTMMDYVLGRTNKNGMVEGMSGDWVFVDWADGYLDKKGELSFEQVLFCRSLETMALCADLVGDKDGQQKYEKLASALKAKLEPTFWNNQKQAFVHNCVDGRQSDAVTRYANMFSVFFDYLNADKQQAIKQSVLLNDEILKITTPYMRFYELEALCALGEQETVMKEMKAYWGGMLKAGATSFWEKYNPEESGTQHLAMYGRPYGKSLCHAWGASPIYLLGKYYLGVKPTKEGYKEFAVSPVLGGLKWMEGTVPTPNGDIHVYMDNKTIKVKATEGKGYLTIQSRRQPKANMGTVEKVSEGVWRLWIDSPEERIVTYRL | 3.002 | 2.545 | 0.17 | 5.223
1040 (protein, listed as Rhodopirellula baltica) MNEDGWQDRRQLPRFSWIRLAKGRSAELSSIPVRPLKMLLSILFLTVITVAASSSVSALEPQRLRCEYLENPTGIDAARTRLSWQVTSDQRGQSQIAYRLLVASSEEQLGSGVGDLWDSGKVKSDQTLFVEYAGKPLSSRQECFWKVQVWDGAGNATESEVASWSMGLLDQSDWSAEYISYRDDSPIHTDLSTLHLPAARQYRKEFSASKSIKRATVYATALGIYELHLNGQRVGDASFAPGWTDYRKRAYYNTYDVTNLVREGDNAIGAWVADGWYSGYVGFGLLTGMGPEKNGRSTYGKTPSFMSQLEIEFEDGTKQTIGTDTTWKVTGEGPIQEADLLMGESYDARREMVGWSEPGFDHDHWDDAILAKQNGQVTAAFYEFRNPTTTGAGVKKVGEQRDFGFKRPELEAFPGVPVRVTQEIPAKTVSKLEPGTFVFDLGQNFAGTIRLKIKGREGERIQLRYGEMLHPDGRLMTENLRKARATDYYTCKGNPDGEFYQPRFTFHGFQFVEVKRLSDSSEDAGKATDSQNVQTPPLDMVTGLVLHSDTPMASTFECSDPMVNQLFKNVLWTQRANFLDLPTDCPQRDERMGWTGDAQAYVATAAYNADIGAFYTKWLRELMESQRPSGAFPGYAPYPFQHGWDFGTAWADAGVICPWTIWQFYGDTRVIDDCWEPMTRFMRWRKQTSVNDLGVSHGNAWGDWLSQGEETPLDYIDTVYFAISARMMAEMAEATGRDEEAKLYREQRAATQAAFQAKYLNEDGSITVRTQTAQALALFADLVPAEQREATGKYLAKRLSENGNHMATGFLGTRPLLPVLSGSGQHDLATFLLQSREFPSWGYEISNGATTIWERWDSYTKEDAFGRHNAAMNSFSHYAFGAVCEWMFATLAGIQSDGPGFKRIVIRPTPPSPGSNAMHEPINWVKASYESIRGTIRSEWKMVDGRFHLNVTIPANTTATVYLPTNDANSITESGNALADTANVSLLRKETNVVALTVHSGSYEFLASSGIVPAKVSLKSSEPKDNSINPGEIDLTDATKLESWDFRNPQDLAKWGERKSVDIEQRNGSAYLVATGDDSQMAVRMTKPLEGKLVIELRASPSQNSTSQFYWAIPGRGFNGQQQTKRLLRQSDAVNAYLFAIPDALTVGKLRFDPFATYDEYANAGEMMIESISIYRLVD | 3.084 | 2.372 | 0.18 | 5.244
1050 (protein, listed as Streptomyces bottropensis) MNNAPYDLRIDTGGDQFAVSGPAPRLSWKPPSDTGHPAGYELECTVDGDAQPALRVAPGRHRFLPWPWAALGSGRQVEWRVRADGPGGPTPWSEWNAFEVGLLDEDWQARWISPAESGDPGYGKRPAHTLTARFEVRAGVRSARLYATALGLYEAYVNGERAGTAELSPGSTSYDRTLHAQASDVTAAVRAGGNLVEIVLSDGWYRGQVGAFRLPAGWGTVLGARAELHIAYEDGSRQVVRSDETWTSTRSAITRADLMDGQSTDFRAGRDTEQPVLVDRVEAAAIDWSPAPPVRVVASRPAQSVKQLRDGLWIADFGQNASGRLAVGDLGPAGTRTVIDYGEHVGPDGDLTTAHLDSSRPGEEPIPFVQRDEVVSMGRGETFEPRHTVHGFQYARIRRDGAPLDPASLTMRVVHTDLRRAGSFACSDDDLNRLHEIADWSFRGNAVDVPTDCPTRERLAWTGDYQVFAPTATRLYDVLGFSRKWLRSVRDDQLPDGRIANFSPDGRRIKHHLDDQFAMMTGSAGWGDAIVAVPWELYQSYGDQEILAENWEAMVRWVEWALRTARTARHHSRRERSAEPRPHERYLWDGSFHWGEWTEPRTKTADGTRIDPVKTDPVAWFMADKGEVGTAFLYRSTSTLADVARVLGRTEDAARYAETAEHVRDAWRTEFLTPDGRTTGDTQAGYVRALSLGLVPAELRPAAAARLVELIRSAGTHLGTGFLATGDLLPVLADTGHTDMAYELLLRRTAPSWLYMLDHGATTIWEDWEGIDENGDAHDSLNHYSKGAVIRFLHTHTLGLRQAPGSVAWESVEVAPVPHPSLTWARGTHESPQGTIAVEWRTTGDELTLAVDVPPATTARVVFPDGTTETATTGTFRATRRITCASSARSARAPGDEPLVRSEGATD | 2.305 | 2.528 | 0.17 | 5.251
1078 (protein, listed as Flavobacterium johnsoniae) MFQKKHLFFILLLASIVSAQEVHKKETNFQPTLESSKPWVYWYWMKSAYSKPGITADLEAMKQAGIAGAYLMTIKGPANPPLIDPPVLQLTPEFWDMIHWAFKEADRLGLKLAFHGADGFAVAGGPWITPEMSMQKIVWSTTEILGGKKVTSKLPVPAHYKDYYKNIATFAIPIKEYEITSQMQLPKVTTSNNTDASFLADPKKDENFKFADAGWIQYEFAQPFTCKSIVIETKGRDFQAQRLIVEVSDDGVNFRFHERMIAPRHGWQDMDFPNTHTITPVTAKYFRFVCDPKGTEPGAEDLDFAKWKQNLKVSKITLSNQSLINNYEGKSGAIWRLTPQTTEKEIPNSDAFKKSEIINISNFVDADGNLNWKAPKGKWKILRMGHTSTGHENATGGAGKGLEVDKFNPELIRFQLDHWFGEAVRSAGPELTSKVLEILHFDSWECGSQNWSSVFQTEFKKRRGYDLVEYLPVMAGIPVESADFSEKVLYDIRKTIADLVADNFYGTIAQIAKEYNVKLSAENVAPVVTSDALLHYKYVDYPSGEFWLKSPTHDKPFDMVDAISGGHIYGKDIIQAESFTALRMDWDEHPGNLKTTADRNYALGINRLFYHVFVHNPWTDRKPGMTLDDIGTFFQRDQTWWKPGKAWFDYCQRVQFQLQKGKPIIDLAVFSGEDFPSRSFVPDRLVPFIPNVFGKERLESEKIRLENEGQPTAKMPKEVTYSKNITDLSQWINPLNGYQYDSFNADVLINRAKVINGKISFEGGIEYGALFFPGSHKMAPNKMLSLASAEKILQLLKDGATIFVDEKPNLQPGVQSEADQKKWQNVIDEIWNNTNSATWKIGKGTVIKLPYLGNDFASIGISQDVYFTNLNRVDSETLAWAHRKSDTEDIYFISNQKAEKRTFDASFRILGKVPQWYNPVTDKTSALDNWKIENGRTIVSITLDANESGFVMFKEETKEILAKGRSSEFEKVQTLDENWKLQFDTEFKGPKEVVKINKLFDWSTSENDQIKYYSGTVVYKKEFIWKGKDSSKTWLDLGEISNIAEIKINGKDCGALWTFPFKTDISKALQKGKNTIEIKVTNTWANRLIGDQKLPKEERLTWTTAPFRLEGEPLLKAGLLGPVIIVKEK | 2.788 | 2.153 | 0.16 | 5.218
